Values belong to the binder of their own block, whether it stands above or below them.
Columns and labels:
[1] = target: T1, human CXCR4 (human, UniProt P61073 1-352); assay: flow cytometry; Batch2
T1 chain: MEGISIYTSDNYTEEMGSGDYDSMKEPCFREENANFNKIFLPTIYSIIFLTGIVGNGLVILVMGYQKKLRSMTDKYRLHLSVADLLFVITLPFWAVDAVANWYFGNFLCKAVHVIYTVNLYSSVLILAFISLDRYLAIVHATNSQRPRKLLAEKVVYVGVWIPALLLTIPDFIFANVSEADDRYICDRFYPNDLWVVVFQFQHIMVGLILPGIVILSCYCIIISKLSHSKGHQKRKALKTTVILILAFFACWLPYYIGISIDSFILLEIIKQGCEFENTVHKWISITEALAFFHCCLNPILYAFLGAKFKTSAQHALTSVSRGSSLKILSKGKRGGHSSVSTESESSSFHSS

[2] = target: T1, human CXCR4; assay: flow cytometry; Batch1
[3] = target: T1, human CXCR4; assay: flow cytometry; Batch1
[4] = target: T1, human CXCR4; assay: flow cytometry; Batch2
[5] = target: T1, human CXCR4; assay: flow cytometry
[6] = target: T1, human CXCR4; assay: flow cytometry
[7] = target: T1, human CXCR4; assay: flow cytometry; Batch1
[8] = target: T1, human CXCR4; assay: flow cytometry; Batch2

B2: V62.1-R108H-m47-m38 (antibody, V domains shown)
VH: EVQLLESGGGLVQPGGSLRLSCAASGFTFSSYAMSWVRQAPGKGLEWVSAISGSGGTRYADSVKGRFTISRDNSKNTLYLQMNSLRAEDTAVYYCARQGKTRVYGYHWHGYGSTHALDYWGQGTLVTVSS
VL: EIVLTQSPGTLSLSPGERATLSCRASQSVSSSYLAWYQQKPGQAPRLLIYGASSRATGIPDRFSGSGSGTDFTLTISRLEPEDFAVYYCQQWSSDSVTFGQGTKVEIKR
- EC50 [3]: ~0.7 nM
- EC50 [4]: ~0.8 nM

B3: V62.1-R108H (antibody, V domains shown)
VH: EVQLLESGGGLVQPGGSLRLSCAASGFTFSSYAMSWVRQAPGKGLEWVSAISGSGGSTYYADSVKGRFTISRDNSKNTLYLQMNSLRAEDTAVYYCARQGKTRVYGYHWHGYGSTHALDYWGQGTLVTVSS
VL: EIVLTQSPGTLSLSPGERATLSCRASQSVSSSYLAWYQQKPGQAPRLLIYGASSRATGIPDRFSGSGSGTDFTLTISRLEPEDFAVYYCQQSDYSYPFTFGQGTKVEIKR
- EC50 [5]: ~1.8 nM

B5: V62.1-R108H-m80 (antibody, V domains shown)
VH: EVQLLESGGGLVQPGGSLRLSCAASGFTISPYSITWVRQAPGKGLEWVSQINSYNGKTYYADSVKGRFTISRDNSKNTLYLQMNSLRAEDTAVYYCARQGKTRVYGYHWHGYGSTHALDYWGQGTLVTVSS
VL: EIVLTQSPGTLSLSPGERATLSCRASQSVSSSYLAWYQQKPGQAPRLLIYGASSRATGIPDRFSGSGSGTDFTLTISRLEPEDFAVYYCQQSDYSYPFTFGQGTKVEIKR
- EC50 [7]: ~1.2 nM
- EC50 [8]: ~1.2 nM

Second part, the binder after the results:

- EC50 [1]: ~1.1 nM
- EC50 [2]: ~0.6 nM
B1: V62.1-R108H-m43-m38 (antibody, V domains shown)
VH: EVQLLESGGGLVQPGGSLRLSCAASGFTFSSYAMSWVRQAPGKGLEWVSAISGSGGGSTRYADSVKGRFTISRDNSKNTLYLQMNSLRAEDTAVYYCARQGKTRVYGYHWHGYGSTHALDYWGQGTLVTVSS
VL: EIVLTQSPGTLSLSPGERATLSCRASQSVSSSYLAWYQQKPGQAPRLLIYGASSRATGIPDRFSGSGSGTDFTLTISRLEPEDFAVYYCQQWSSDSVTFGQGTKVEIKR

- EC50 [6]: ~2.2 nM
B4: V62.1 (antibody, V domains shown)
VH: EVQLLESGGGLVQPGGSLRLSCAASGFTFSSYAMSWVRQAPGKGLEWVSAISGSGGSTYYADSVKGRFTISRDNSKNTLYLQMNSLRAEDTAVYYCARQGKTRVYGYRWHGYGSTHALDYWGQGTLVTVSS
VL: EIVLTQSPGTLSLSPGERATLSCRASQSVSSSYLAWYQQKPGQAPRLLIYGASSRATGIPDRFSGSGSGTDFTLTISRLEPEDFAVYYCQQSDYSYPFTFGQGTKVEIKR
